Measurements: patent US20060024313A1, “Agents that disrupt dimer formation in DPP-IV family of prolyl dipeptidases” (priority 2004, published 2006)
Entries after “also recorded” stand apart in the source; their conditions may differ.

Tests used:
[1] = Analytical ultracentrifugation (AUC): sedimentation velocity and equilibrium; type: physicochemical; conditions: PBS buffer where stated
Description: Buffer was changed using an Amicon device and DPP-IV proteins were allowed to equilibrate for at least four hours or longer as indicated in the text at 25° C. after buffer changes. The sedimentation coefficients (S) of the enzyme were estimated by a Beckman-Coulter XL-A analytical ultracentrifuge with an An60Ti rotor as described (25). Sedimentation velocity analysis was performed at 40,000 rpm at 25° C. with standard double sector aluminum centerpieces. The UV absorption of the cells was scanned every 5 min for 4 hours. Sedimentation equilibrium was performed at 20° C. with six-channel open centerpieces and then centrifuged at 12,000 rpm for 12 hours. The data from both sedimentation velocity and sedimentation experiments were analyzed with the SedFit version 8.7 program to obtain molecular weights and sedimentation coefficients (25). Sednterp version 1.07 program is used to obtain solvent density, viscosity, Stokes' radius (Rs) and anhydrous frictional ratio (f/fo).

DPP-IV = assay: Kinetic constant measurements with chromogenic substrate H-Gly-Pro-pNA; type: biochemical, human
Description: To measure the kinetic parameters, the chromogenic substrate H-Gly-Pro-pNA was utilized to initiate the reaction, which was monitored at OD 405 nm as a function of time (21). […] The initial rate was measured with less than 10% substrate depletion for the first 10 to 300 seconds. The steady-state parameters, kcat and Km, were determined from initial velocity measurements at 0.5 to 5 Km of the substrate concentrations. Lineweaver-Burk plots were analyzed using non-linear regression of the Michaelis-Menten equation. Correlation coefficients better than 0.99 were obtained throughout.

[2] = Table III, monomer form of the mutant
[3] = values in text, monomeric mutants
[4] = Table III, dimer form of the mutant

Molecule | quaternary structure (monomer/dimer) by AUC [1] | Km (DPP-IV; [2]) | kcat (DPP-IV; [2]) | Km (DPP-IV; [3]) | kcat (DPP-IV; [3]) | quaternary structure (monomer/dimer) by AUC ([1]; listed as F713A) | Km (DPP-IV; [4]) | kcat (DPP-IV; [4])
DPP 8: member of the DPP-IV family of prolyl dipeptidases (protein) MAAAMETEQLGVEIFETADCEENIESQDRPKLEPFYVERYSWSQLKKLLADTRKYHGYMMAKAPHDFMFVKRNDPDGPHSDRIYYLAMSGENRENTLFYSEIPKTINRAAVLMLSWKPLLDLFQATLDYGMYSREEELLRERKRIGTVGIASYDYHQGSGTFLFQAGSGIYHVKDGGPQGFTQQPLRPNLVETSCPNIRMDPKLCPADPDWIAFIHSNDIWISNIVTREERRLTYVHNELANMEEDARSAGVATFVLQEEFDRYSGYWWCPKAETTPSGGKILRILYEENDESEVEIIHVTSPMLETRRADSFRYPKTGTANPKVTFKMSEIMIDAEGRIIDVIDKELIQPFEILFEGVEYIARAGWTPEGKYAWSILLDRSQTRLQIVLISPELFIPVEDDVMERQRLIESVPDSVTPLIIYEETTDIWINIHDIFHVFPQSHEEEIEFIFASECKTGFRHLYKITSILKESKYKRSSGGLPAPSDFKCPIKEEIAITSGEWEVLGRHGSNIQVDEVRRLVYFEGTKDSPLEHHLYVVSYVNPGEVTRLTDRGYSHSCCISQHCDFFISKYSNQKNPHCVSLYKLSSPEDDPTCKTKEFWATILDSAGPLPDYTPPEIFSFESTTGFTLYGMLYKPHDLQPGKKYPTVLFIYGGPQVQLVNNRFKGVKYFRLNTLASLGYVVVVIDNRGSCHRGLKFEGAFKYKMGQIEIDDQVEGLQYLASRYDFIDLDRVGIHGWSYGGYLSLMALMQRSDIFRVAIAGAPVTLWIFYDTGYTERYMGHPDQNEQGYYLGSVAMQAEKFPSEPNRLLLLHGFLDENVHFAHTSILLSFLVRAGKPYDLQIYPQERHSIRVPESGEHYELHLLHYLQENLGSRIAALKVI | is a dimer; also recorded: exists as a dimer | – | – | – | – | – | – | –
713A: DPP-IV C-terminal loop mutant, F713 substituted with Alanine (protein) SRKTYTLTDYLKNTYRLKLYSLRWISDHEYLYKQENNILVFNAEYGNSSVFLENSTFDEFGHSINDYSISPDGQFILLEYNYVKQWRHSYTASYDIYDLNKRQLITEERIPNNTQWVTWSPVGHKLAYVWNNDIYVKIEPNLPSYRITWTGKEDIIYNGITDWVYEEEVFSAYSALWWSPNGTFLAYAQFNDTEVPLIEYSFYSDESLQYPKTVRVPYPKAGAVNPTVKFFVVNTDSLSSVTNATSIQITAPASMLIGDHYLCDVTWATQERISLQWLRRIQNYSVMDICDYDESSGRWNCLVARQHIEMSTTGWVGRFRPSEPHFTLDGNSFYKIISNEEGYRHICYFQIDKKDCTFITKGTWEVIGIEALTSDYLYYISNEYKGMPGGRNLYKIQLSDYTKVTCLSCELNPERCQYYSVSFSKEAKYYQLRCSGPGLPLYTLHSSVNDKGLRVLEDNSALDKMLQNVQMPSKKLDFIILNETKFWYQMILPPHFDKSKKYPLLLDVYAGPCSQKADTVFRLNWATYLASTENIIVASFDGRGSGYQGDKIMHAINRRLGTFEVEDQIEAARQFSKMGFVDNKRIAIWGWSYGGYVTSMVLGSGSGVFKCGIAVAPVSRWEYYDSVYTERYMGLPTPEDNLDHYRNSTVMSRAENFKQVEYLLIHGTADDNVHAQQSAQISKALVDVGVDFQAMWYTDEDHGIASSTAHQHIYTHMSHFIKQCFSLP | – | 50.1 µM | 1.8 s − 1 | 51 µM | 1 S^−1 | monomers; also recorded: monomeric DPP-IV | – | –
734A: DPP-IV C-terminal loop mutant, W734 substituted with Alanine (protein) SRKTYTLTDYLKNTYRLKLYSLRWISDHEYLYKQENNILVFNAEYGNSSVFLENSTFDEFGHSINDYSISPDGQFILLEYNYVKQWRHSYTASYDIYDLNKRQLITEERIPNNTQWVTWSPVGHKLAYVWNNDIYVKIEPNLPSYRITWTGKEDIIYNGITDWVYEEEVFSAYSALWWSPNGTFLAYAQFNDTEVPLIEYSFYSDESLQYPKTVRVPYPKAGAVNPTVKFFVVNTDSLSSVTNATSIQITAPASMLIGDHYLCDVTWATQERISLQWLRRIQNYSVMDICDYDESSGRWNCLVARQHIEMSTTGWVGRFRPSEPHFTLDGNSFYKIISNEEGYRHICYFQIDKKDCTFITKGTWEVIGIEALTSDYLYYISNEYKGMPGGRNLYKIQLSDYTKVTCLSCELNPERCQYYSVSFSKEAKYYQLRCSGPGLPLYTLHSSVNDKGLRVLEDNSALDKMLQNVQMPSKKLDFIILNETKFWYQMILPPHFDKSKKYPLLLDVYAGPCSQKADTVFRLNWATYLASTENIIVASFDGRGSGYQGDKIMHAINRRLGTFEVEDQIEAARQFSKMGFVDNKRIAIWGWSYGGYVTSMVLGSGSGVFKCGIAVAPVSRWEYYDSVYTERYMGLPTPEDNLDHYRNSTVMSRAENFKQVEYLLIHGTADDNVHFQQSAQISKALVDVGVDFQAMAYTDEDHGIASSTAHQHIYTHMSHFIKQCFSLP | monomers | 90.5 µM | 0.3 s − 1 | – | – | – | – | –
730A: DPP-IV C-terminal loop mutant, F730 substituted with Alanine (protein) SRKTYTLTDYLKNTYRLKLYSLRWISDHEYLYKQENNILVFNAEYGNSSVFLENSTFDEFGHSINDYSISPDGQFILLEYNYVKQWRHSYTASYDIYDLNKRQLITEERIPNNTQWVTWSPVGHKLAYVWNNDIYVKIEPNLPSYRITWTGKEDIIYNGITDWVYEEEVFSAYSALWWSPNGTFLAYAQFNDTEVPLIEYSFYSDESLQYPKTVRVPYPKAGAVNPTVKFFVVNTDSLSSVTNATSIQITAPASMLIGDHYLCDVTWATQERISLQWLRRIQNYSVMDICDYDESSGRWNCLVARQHIEMSTTGWVGRFRPSEPHFTLDGNSFYKIISNEEGYRHICYFQIDKKDCTFITKGTWEVIGIEALTSDYLYYISNEYKGMPGGRNLYKIQLSDYTKVTCLSCELNPERCQYYSVSFSKEAKYYQLRCSGPGLPLYTLHSSVNDKGLRVLEDNSALDKMLQNVQMPSKKLDFIILNETKFWYQMILPPHFDKSKKYPLLLDVYAGPCSQKADTVFRLNWATYLASTENIIVASFDGRGSGYQGDKIMHAINRRLGTFEVEDQIEAARQFSKMGFVDNKRIAIWGWSYGGYVTSMVLGSGSGVFKCGIAVAPVSRWEYYDSVYTERYMGLPTPEDNLDHYRNSTVMSRAENFKQVEYLLIHGTADDNVHFQQSAQISKALVDVGVDAQAMWYTDEDHGIASSTAHQHIYTHMSHFIKQCFSLP | mixture with both monomers and dimers | 53.7 µM | 0.2 s − 1 | – | – | – | 56.3 µM | 27.9 s − 1
724A: DPP-IV C-terminal loop mutant, V724 substituted with Alanine (protein) SRKTYTLTDYLKNTYRLKLYSLRWISDHEYLYKQENNILVFNAEYGNSSVFLENSTFDEFGHSINDYSISPDGQFILLEYNYVKQWRHSYTASYDIYDLNKRQLITEERIPNNTQWVTWSPVGHKLAYVWNNDIYVKIEPNLPSYRITWTGKEDIIYNGITDWVYEEEVFSAYSALWWSPNGTFLAYAQFNDTEVPLIEYSFYSDESLQYPKTVRVPYPKAGAVNPTVKFFVVNTDSLSSVTNATSIQITAPASMLIGDHYLCDVTWATQERISLQWLRRIQNYSVMDICDYDESSGRWNCLVARQHIEMSTTGWVGRFRPSEPHFTLDGNSFYKIISNEEGYRHICYFQIDKKDCTFITKGTWEVIGIEALTSDYLYYISNEYKGMPGGRNLYKIQLSDYTKVTCLSCELNPERCQYYSVSFSKEAKYYQLRCSGPGLPLYTLHSSVNDKGLRVLEDNSALDKMLQNVQMPSKKLDFIILNETKFWYQMILPPHFDKSKKYPLLLDVYAGPCSQKADTVFRLNWATYLASTENIIVASFDGRGSGYQGDKIMHAINRRLGTFEVEDQIEAARQFSKMGFVDNKRIAIWGWSYGGYVTSMVLGSGSGVFKCGIAVAPVSRWEYYDSVYTERYMGLPTPEDNLDHYRNSTVMSRAENFKQVEYLLIHGTADDNVHFQQSAQISKALADVGVDFQAMWYTDEDHGIASSTAHQHIYTHMSHFIKQCFSLP | mixture with both monomers and dimers | 76.4 µM | 0.5 s − 1 | – | – | – | 87.5 µM | 48.3 s − 1
735A: DPP-IV C-terminal loop mutant, Y735 substituted with Alanine (protein) SRKTYTLTDYLKNTYRLKLYSLRWISDHEYLYKQENNILVFNAEYGNSSVFLENSTFDEFGHSINDYSISPDGQFILLEYNYVKQWRHSYTASYDIYDLNKRQLITEERIPNNTQWVTWSPVGHKLAYVWNNDIYVKIEPNLPSYRITWTGKEDIIYNGITDWVYEEEVFSAYSALWWSPNGTFLAYAQFNDTEVPLIEYSFYSDESLQYPKTVRVPYPKAGAVNPTVKFFVVNTDSLSSVTNATSIQITAPASMLIGDHYLCDVTWATQERISLQWLRRIQNYSVMDICDYDESSGRWNCLVARQHIEMSTTGWVGRFRPSEPHFTLDGNSFYKIISNEEGYRHICYFQIDKKDCTFITKGTWEVIGIEALTSDYLYYISNEYKGMPGGRNLYKIQLSDYTKVTCLSCELNPERCQYYSVSFSKEAKYYQLRCSGPGLPLYTLHSSVNDKGLRVLEDNSALDKMLQNVQMPSKKLDFIILNETKFWYQMILPPHFDKSKKYPLLLDVYAGPCSQKADTVFRLNWATYLASTENIIVASFDGRGSGYQGDKIMHAINRRLGTFEVEDQIEAARQFSKMGFVDNKRIAIWGWSYGGYVTSMVLGSGSGVFKCGIAVAPVSRWEYYDSVYTERYMGLPTPEDNLDHYRNSTVMSRAENFKQVEYLLIHGTADDNVHFQQSAQISKALVDVGVDFQAMWATDEDHGIASSTAHQHIYTHMSHFIKQCFSLP | monomers | 88.6 µM | 0.05 s − 1 | – | – | – | – | –
